Source: IntAct's records for PubMed 15385968

Target: xrcc4_human XRCC4 (UniProt Q13426)
Sequence (Q13426 whole entry): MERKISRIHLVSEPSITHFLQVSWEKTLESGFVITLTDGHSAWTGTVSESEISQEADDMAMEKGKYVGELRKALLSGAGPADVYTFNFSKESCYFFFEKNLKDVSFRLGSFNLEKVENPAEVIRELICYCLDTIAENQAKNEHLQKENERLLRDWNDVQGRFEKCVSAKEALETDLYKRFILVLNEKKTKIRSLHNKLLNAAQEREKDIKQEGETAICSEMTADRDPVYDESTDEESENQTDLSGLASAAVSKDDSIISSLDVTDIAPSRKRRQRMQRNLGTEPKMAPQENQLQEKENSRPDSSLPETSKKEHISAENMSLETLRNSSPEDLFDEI

effect of a mutation on the interaction: disrupting interaction
Substance: Bifunctional polynucleotide phosphatase/kinase (Homo sapiens), Q96T60 R35A
